{"source": "paper PMC5821828", "about": "“A Genetic Screen for Investigating the Human Lysosomal CystineTransporter, Cystinosin” (Scientific Reports, 2018)", "key": {"[1]": {"system": "T1, N[C@@H](CSSC[C@H](N)C(=O)O)C(=O)O", "T1 construct": "lacks C-terminal GYDQLN (lysosomal targeting motif; Y363 and L366), untagged, p416TEF (ABE 3513), expressed in S. cerevisiae vps1Δvps17Δ (ABC 5017)", "assay": "cells, lysate or membranes", "assay_type": "cell-based, Homo sapiens", "settings": "pH 5.5 (MES), 2% glucose, 30 °C, vps1Δvps17Δ yeast, labelled compound"}, "[2]": {"substrate": "N[C@@H](CSSC[C@H](N)C(=O)O)C(=O)O", "assay": "cells, lysate or membranes", "assay_type": "cell-based, Homo sapiens", "settings": "pH 5.5 (MES), 2% glucose, 30 °C, vps1Δvps17Δ yeast, labelled compound"}}, "data": [{"molecule": "CTNS-Δgydql (Homo sapiens; DEL362-367)", "values": [{"measurement": "Km", "setting": "[1]", "result": "254.4 ± 61", "unit": "µM"}]}, {"molecule": "CTNS-Δgydql (Homo sapiens; G197R) (protein, lacks C-terminal GYDQLN (lysosomal targeting motif; Y363 and L366), untagged, p416TEF (ABE 3513), expressed in S. cerevisiae vps1Δvps17Δ (ABC 5017)) SVSLTVPPVVKLENGSSTNVSLTLRPPLNATLVITFEITFRSKNITILELPDEVVVPPGVTNSSFQVTSQNVGQLTVYLHGNHSNQTGPRIRFLVIRSSAISIINQVIGWIYFVAWSISFYPQVIMNWRRKSVIGLSFDFVALNLTGFVAYSVFNIGLLWVPYIKEQFLLKYPNRVNPVNSNDVFFSLHAVVLTLIIIVQCCLYERGGQRVSWPAIGFLVLAWLFAFVTMIVAAVGVTTWLQFLFCFSYIKLAVTLVKYFPQAYMNFYYKSTEGWSIGNVLLDFTGGSFSLLQMFLQSYNNDQWTLIFGDPTKFGLGVFSIVFDVVFFIQHFCLYRKRP", "values": [{"measurement": "Km", "setting": "[2]", "result": "97.3 ± 30.9", "unit": "µM"}]}, {"molecule": "CTNS-Δgydql (Homo sapiens; G131S) (protein, lacks C-terminal GYDQLN (lysosomal targeting motif; Y363 and L366), untagged, p416TEF (ABE 3513), expressed in S. cerevisiae vps1Δvps17Δ (ABC 5017)) SVSLTVPPVVKLENGSSTNVSLTLRPPLNATLVITFEITFRSKNITILELPDEVVVPPGVTNSSFQVTSQNVGQLTVYLHGNHSNQTGPRIRFLVIRSSAISIINQVISWIYFVAWSISFYPQVIMNWRRKSVIGLSFDFVALNLTGFVAYSVFNIGLLWVPYIKEQFLLKYPNGVNPVNSNDVFFSLHAVVLTLIIIVQCCLYERGGQRVSWPAIGFLVLAWLFAFVTMIVAAVGVTTWLQFLFCFSYIKLAVTLVKYFPQAYMNFYYKSTEGWSIGNVLLDFTGGSFSLLQMFLQSYNNDQWTLIFGDPTKFGLGVFSIVFDVVFFIQHFCLYRKRP", "values": [{"measurement": "Km", "setting": "[2]", "result": "130.4 ± 10.9", "unit": "µM"}]}, {"molecule": "CTNS-Δgydql (Homo sapiens; S270T) (protein, lacks C-terminal GYDQLN (lysosomal targeting motif; Y363 and L366), untagged, p416TEF (ABE 3513), expressed in S. cerevisiae vps1Δvps17Δ (ABC 5017)) SVSLTVPPVVKLENGSSTNVSLTLRPPLNATLVITFEITFRSKNITILELPDEVVVPPGVTNSSFQVTSQNVGQLTVYLHGNHSNQTGPRIRFLVIRSSAISIINQVIGWIYFVAWSISFYPQVIMNWRRKSVIGLSFDFVALNLTGFVAYSVFNIGLLWVPYIKEQFLLKYPNGVNPVNSNDVFFSLHAVVLTLIIIVQCCLYERGGQRVSWPAIGFLVLAWLFAFVTMIVAAVGVTTWLQFLFCFTYIKLAVTLVKYFPQAYMNFYYKSTEGWSIGNVLLDFTGGSFSLLQMFLQSYNNDQWTLIFGDPTKFGLGVFSIVFDVVFFIQHFCLYRKRP", "values": [{"measurement": "Km", "setting": "[2]", "result": "207.2 ± 41.5", "unit": "µM"}]}, {"molecule": "CTNS-Δgydql (Homo sapiens; G309C) (protein, lacks C-terminal GYDQLN (lysosomal targeting motif; Y363 and L366), untagged, p416TEF (ABE 3513), expressed in S. cerevisiae vps1Δvps17Δ (ABC 5017)) SVSLTVPPVVKLENGSSTNVSLTLRPPLNATLVITFEITFRSKNITILELPDEVVVPPGVTNSSFQVTSQNVGQLTVYLHGNHSNQTGPRIRFLVIRSSAISIINQVIGWIYFVAWSISFYPQVIMNWRRKSVIGLSFDFVALNLTGFVAYSVFNIGLLWVPYIKEQFLLKYPNGVNPVNSNDVFFSLHAVVLTLIIIVQCCLYERGGQRVSWPAIGFLVLAWLFAFVTMIVAAVGVTTWLQFLFCFSYIKLAVTLVKYFPQAYMNFYYKSTEGWSIGNVLLDFTGCSFSLLQMFLQSYNNDQWTLIFGDPTKFGLGVFSIVFDVVFFIQHFCLYRKRP", "values": [{"measurement": "Km", "setting": "[2]", "result": "124.8 ± 23.5", "unit": "µM"}]}, {"molecule": "CTNS WT (human cystinosin with GYDQL motif) (Homo sapiens) (protein, full-length, untagged, plasmid p416TEF (TEF-CTNS, ABE 3006), expressed in S. cerevisiae vps1Δvps17Δ; uptake across plasma membrane) SVSLTVPPVVKLENGSSTNVSLTLRPPLNATLVITFEITFRSKNITILELPDEVVVPPGVTNSSFQVTSQNVGQLTVYLHGNHSNQTGPRIRFLVIRSSAISIINQVIGWIYFVAWSISFYPQVIMNWRRKSVIGLSFDFVALNLTGFVAYSVFNIGLLWVPYIKEQFLLKYPNGVNPVNSNDVFFSLHAVVLTLIIIVQCCLYERGGQRVSWPAIGFLVLAWLFAFVTMIVAAVGVTTWLQFLFCFSYIKLAVTLVKYFPQAYMNFYYKSTEGWSIGNVLLDFTGGSFSLLQMFLQSYNNDQWTLIFGDPTKFGLGVFSIVFDVVFFIQHFCLYRKRPGYDQLN", "values": [{"measurement": "Km", "setting": "[2]", "result": "400 ± 133", "unit": "µM"}]}]}
